{"source": "paper PMC4528935", "about": "“Structures of Pseudomonas aeruginosa β-ketoacyl-(acyl-carrier-protein) synthase II (FabF) and a C164Q mutant provide templates for antibacterial drug discovery and identify a buried potassium ion and a ligand-binding site that is an artefact of the crystal form” (Acta Crystallographica. Section F, Structural Biology …, 2015)", "key": {"[1]": {"biological_target": "the molecule itself", "assay": "crystal structure; apo PaFabF, space group P2_(1), two molecules in the asymmetric unit; 0.2 M MgCl2, 0.1 M Tris-HCl pH 7.0, 10% PEG 8000, 293 K"}, "[2]": {"biological_target": "the molecule itself", "assay": "crystal structure; PaFabF-C164Q, space group C222_(1), a dimer in the asymmetric unit; 0.2 M NH4HCO2, 25% PEG 3350, 293 K"}}, "data": [{"protein": "Pseudomonas aeruginosa β-ketoacyl-(acyl-carrier-protein) synthase II (FabF) (enzyme, β-ketoacyl-(acyl-carrier-protein) synthase II (FabF) of Pseudomonas aeruginosa, UniProt G3XDA2; the gene was cloned into pNIC28-Bsa4; theoretical mass of a monomer 43 kDa; The models hold 822 residues for two chains (4b7v) and 408 for one chain (4jpf); also called PaFabF; apo PaFabF; source: E. coli BL21(DE3)pLysS, purified (Ni2+ HisTrap, TEV cleavage, second HisTrap, Superdex 200 SEC); not …) MSRRRVVITGMGMLSPLGLDVPSSWEGILAGRSGIAPIEHMDLSAYSTRFGGSVKGFNVEEYLSAKEARKLDLFIQYGLAASFQAVRDSGLEVTDANRERIGVSMGSGIGGLTNIENNCRSLFEQGPRRISPFFVPGSIINMVSGFLSIHLGLQGPNYALTTACTTGTHSIGMAARNIAYGEADVMVAGGSEMAACGLGLGGFGAARALSTRNDEPTRASRPWDRDRDGFVLSDGSGALVLEELEHARARGARIYAELVGFGMSGDAFHMTAPPEDGAGAARCMKNALRDAGLDPRQVDYINAHGTSTPAGDIAEIAAVKSVFGEHAHALSMSSTKSMTGHLLGAAGAVEAIFSVLALRDQVAPPTINLDNPDEGCDLDLVAHEAKPRKIDVALSNSFGFGGTNGTLVFRRFAD", "values": [{"measurement": "binding result", "setting": "[1]", "value": "binds"}]}, {"protein": "PaFabF C164Q mutant (enzyme, β-ketoacyl-(acyl-carrier-protein) synthase II (FabF) of Pseudomonas aeruginosa, UniProt G3XDA2, with Cys164 changed to Gln; same construct in pNIC28-Bsa4 as the wild type; The model holds 824 residues for two chains (4jb6); source: E. coli BL21(DE3)pLysS, purified as the wild type but in phosphate buffer; not shown: His6, N-terminal, cleaved) MSRRRVVITGMGMLSPLGLDVPSSWEGILAGRSGIAPIEHMDLSAYSTRFGGSVKGFNVEEYLSAKEARKLDLFIQYGLAASFQAVRDSGLEVTDANRERIGVSMGSGIGGLTNIENNCRSLFEQGPRRISPFFVPGSIINMVSGFLSIHLGLQGPNYALTTAQTTGTHSIGMAARNIAYGEADVMVAGGSEMAACGLGLGGFGAARALSTRNDEPTRASRPWDRDRDGFVLSDGSGALVLEELEHARARGARIYAELVGFGMSGDAFHMTAPPEDGAGAARCMKNALRDAGLDPRQVDYINAHGTSTPAGDIAEIAAVKSVFGEHAHALSMSSTKSMTGHLLGAAGAVEAIFSVLALRDQVAPPTINLDNPDEGCDLDLVAHEAKPRKIDVALSNSFGFGGTNGTLVFRRFAD", "values": [{"measurement": "binding result", "setting": "[2]", "value": "binds"}]}]}
